Test [1] addresses T1, CreS-His (full-length CreS followed by GSHHHHHH) (Caulobacter crescentus (vibrioides) …).
T1 construct: crescentin (CreS), Caulobacter crescentus (vibrioides), residues 1-457; also called pFE127 product; source: E. coli C41 (DE3), in cleared lysate; also purified (HisTrap, size exclusion chromatography)
T1 chain: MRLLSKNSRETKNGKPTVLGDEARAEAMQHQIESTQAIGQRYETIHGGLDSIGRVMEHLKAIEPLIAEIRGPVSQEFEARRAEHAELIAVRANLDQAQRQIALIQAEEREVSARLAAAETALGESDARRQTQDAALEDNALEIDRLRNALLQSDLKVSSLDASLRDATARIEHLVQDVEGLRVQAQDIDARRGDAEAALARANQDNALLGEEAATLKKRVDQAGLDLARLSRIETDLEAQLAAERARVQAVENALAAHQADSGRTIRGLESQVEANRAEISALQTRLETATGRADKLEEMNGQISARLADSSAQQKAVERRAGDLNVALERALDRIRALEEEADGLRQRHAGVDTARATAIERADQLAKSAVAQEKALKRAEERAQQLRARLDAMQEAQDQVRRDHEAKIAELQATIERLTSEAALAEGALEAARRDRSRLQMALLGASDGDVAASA
In words: far-Western, overlay or dot blot; cleared lysates of E. coli C41 (DE3) expressing CreS-His variants resolved by SDS-PAGE, blotted, probed with NB13 (7 µg/mL) then α-HA-peroxidase. Conditions: one partner purified.

The target of test [2] is T1, CreS-His (full-length CreS followed by …).

Experimental findings from article PMC10873595, “Filament structure and subcellular organization of the bacterial intermediate filament–like protein crescentin” (Proceedings of the National Academy of Sciences of the …, 2024) are described below.

Where two headings read alike, the source gives them in different places.

B1: nanobody 13 (NB13) (VHH)
VHH: QVQLQESGGGLVQTGGSLRLSCASSRSIDGINIMRWYRQAPGKQRGMVAVVTGWGSTNYVDSVKGRFIISRDSAKDTVYLQMNNLKPEDTAVYSCNAIYRGSEYWGQGTQVTVSS
notes: camelid nanobody raised against purified CreSwt; also called CreS-specific nanobody; clone No. 13; source: E. coli WK6, periplasmic extract, purified (HisTrap); not shown: HA, C-terminal, kept
Take B1: the binding result in test [1] is on record as “binds”.

B2: Megabody MB13 (NB13, YgjK) (VHH)
VHH: AHNTESGEMLFTVKKDSLRLSCASSRSIDGINIMRWYRQAPGKQRGMVAVVTGWGSTNYVDSVKGRFIISRDSAKDTVYLQMNNLKPEDTAVYSCNAIYRGSEYWGQGTQVTVSS
B2: the binding result in test [2] is “binds”.
